Data taken from article PMC4883009 (Biochemistry, 2016).

Legend:
[1] = tested on: bsSecA783 F652-GS(10)-PhoAss Cys22-IAEDANS; experiment: Signal peptide competition-binding assay by FRET; design: species or system B. subtilis; settings: 5-fold molar excess of unlabeled SP22; data not shown
[2] = tested on: bsSecA783 F652-GS(5)-KRRLamBss Cys29-IAEDANS; experiment: Signal peptide competition-binding assay by FRET; design: species or system B. subtilis; settings: 5-fold molar excess of unlabeled SP22; data not shown
[3] = molecular target: E. coli alkaline phosphatase signal peptide SP22, IANBD-labeled (E. coli); experiment: fluorescence polarisation
IANBD-labeled SP22 = experiment: SecA-signal peptide binding affinity by fluorescence anisotropy; design: species or system E. coli

MKQSTIALALLPLLFTPVTKAC-NH2 [SP22]
reduction of energy transfer efficiency [1]: approximately 50% | reduction of energy transfer efficiency [2]: approximately 50%

bsSecA841 (from UniProt P28366 1-841) (enzyme)
Kd [3]: 1.9 µM

bsSecA841-KRRLamBss (from UniProt P28366 1-841)
Kd [3]: 14 µM

bsSecA841-PhoAss (from UniProt P28366 1-841)
Kd [3]: 4.6 µM

bsSecA783-KRRLamBss (from UniProt P28366 1-783)
Kd [3]: 13 µM

bsSecA783-PhoAss (from UniProt P28366 1-783)
Kd [3]: 4.5 µM

B1: bsSecA783: carboxy-terminally truncated B. subtilis SecA lacking the CTL domain (protein, UniProt P28366 1-783, looked up, fragment)
chain: MLGILNKMFDPTKRTLNRYEKIANDIDAIRGDYENLSDDALKHKTIEFKERLEKGATTDDLLVEAFAVVREASRRVTGMFPFKVQLMGGVALHDGNIAEMKTGEGKTLTSTLPVYLNALTGKGVHVVTVNEYLASRDAEQMGKIFEFLGLTVGLNLNSMSKDEKREAYAADITYSTNNELGFDYLRDNMVLYKEQMVQRPLHFAVIDEVDSILIDEARTPLIISGQAAKSTKLYVQANAFVRTLKAEKDYTYDIKTKAVQLTEEGMTKAEKAFGIDNLFDVKHVALNHHINQALKAHVAMQKDVDYVVEDGQVVIVDSFTGRLMKGRRYSEGLHQAIEAKEGLEIQNESMTLATITFQNYFRMYEKLAGMTGTAKTEEEEFRNIYNMQVVTIPTNRPVVRDDRPDLIYRTMEGKFKAVAEDVAQRYMTGQPVLVGTVAVETSELISKLLKNKGIPHQVLNAKNHEREAQIIEEAGQKGAVTIATNMAGRGTDIKLGEGVKELGGLAVVGTERHESRRIDNQLRGRSGRQGDPGITQFYLSMEDELMRRFGAERTMAMLDRFGMDDSTPIQSKMVSRAVESSQKRVEGNNFDSRKQLLQYDDVLRQQREVIYKQRFEVIDSENLREIVENMIKSSLERAIAAYTPREELPEEWKLDGLVDLINTTYLDEGALEKSDIFGKEPDEMLELIMDRIITKYNEKEEQFGKEQMREFEKVIVLRAVDSKWMDHIDAMDQLRQGIHLRAYAQTNPLREYQMEGFAMFEHMIESIEDEVAKFVMKAEIENN
higher affinity for SP22 compared to full-length bsSecA841 (IANBD-labeled SP22): approximately 4 fold
